Measurements as given in US20200216495A1 (ADRX, published 2020).
Values joined by “and” are separate entries in the source; they are usually repeats but may differ in a detail not shown here. Identical values can stand only once. Square brackets hold non-standard residues; d marks the D form. Ends that are not written are not given here. dCit = NC(=O)NCCC[C@@H](N)C(=O)O; dNle = CCCC[C@@H](N)C(=O)O

B1: wriwiryw (PEPTIDE ID NO: 105) (peptide)
peptide: [dW][dR][dI][dW][dI][dR][dY][dW]
B2: rlkirihy (PEPTIDE ID NO: 451) (peptide)
peptide: [dR][dL][dK][dI][dR][dI][dH][dY]
B3: frlkvrww (PEPTIDE ID NO: 231) (peptide)
peptide: [dF][dR][dL][dK][dV][dR][dW][dW]
B4: wrlkvra (PEPTIDE ID NO: 323) (peptide)
peptide: [dW][dR][dL][dK][dV][dR][dA]
B5: lqfdlqyf (PEPTIDE ID NO: 142) (peptide)
peptide: [dL][dQ][dF][dD][dL][dQ][dY][dF]
B6: wklklrww (PEPTIDE ID NO: 13) (peptide)
peptide: [dW][dK][dL][dK][dL][dR][dW][dW]
B7: welrihw (PEPTIDE ID NO: 322) (peptide)
peptide: [dW][dE][dL][dR][dI][dH][dW]
B8: lkfrihy (PEPTIDE ID NO: 216) (peptide)
peptide: [dL][dK][dF][dR][dI][dH][dY]
B9: rlrihwf (PEPTIDE ID NO: 446) (peptide)
peptide: [dR][dL][dR][dI][dH][dW][dF]
B10: lkirfhy (PEPTIDE ID NO: 211) (peptide)
peptide: [dL][dK][dI][dR][dF][dH][dY]
B11: lkirirfh (PEPTIDE ID NO: 414) (peptide)
peptide: [dL][dK][dI][dR][dI][dR][dF][dH]
B12: felhikwh (PEPTIDE ID NO: 134) (peptide)
peptide: [dF][dE][dL][dH][dI][dK][dW][dH]
B13: hwrwrwr (PEPTIDE ID NO: 326) (peptide)
peptide: [dH][dW][dR][dW][dR][dW][dR]
B14: rrlkvrww (PEPTIDE ID NO: 225) (peptide)
peptide: [dR][dR][dL][dK][dV][dR][dW][dW]
B15: rwrlkvrw (PEPTIDE ID NO: 217) (peptide)
peptide: [dR][dW][dR][dL][dK][dV][dR][dW]
B16: lkizihy (PEPTIDE ID NO: 320) (peptide)
peptide: [dL][dK][dI][dCit][dI][dH][dY]
B17: rkirihyh (PEPTIDE ID NO: 227) (peptide)
peptide: [dR][dK][dI][dR][dI][dH][dY][dH]
B18: lkirifyh (PEPTIDE ID NO: 214) (peptide)
peptide: [dL][dK][dI][dR][dI][dF][dY][dH]
B19: wrfkfrw (PEPTIDE ID NO: 215) (peptide)
peptide: [dW][dR][dF][dK][dF][dR][dW]
B20: frikirw (PEPTIDE ID NO: 61) (peptide)
peptide: [dF][dR][dI][dK][dI][dR][dW]
B21: lkiriehy (PEPTIDE ID NO: 155) (peptide)
peptide: [dL][dK][dI][dR][dI][dE][dH][dY]
B22: frvkiqhw (PEPTIDE ID NO: 120) (peptide)
peptide: [dF][dR][dV][dK][dI][dQ][dH][dW]
B23: rlkvrwww (PEPTIDE ID NO: 224) (peptide)
peptide: [dR][dL][dK][dV][dR][dW][dW][dW]
B24: wrlkvrwr (PEPTIDE ID NO: 230) (peptide)
peptide: [dW][dR][dL][dK][dV][dR][dW][dR]
B25: wrfkvrw (PEPTIDE ID NO: 226) (peptide)
peptide: [dW][dR][dF][dK][dV][dR][dW]
B26: lkimihy (PEPTIDE ID NO: 317) (peptide)
peptide: [dL][dK][dI][dM][dI][dH][dY]
B27: wrlkvrwh (PEPTIDE ID NO: 222) (peptide)
peptide: [dW][dR][dL][dK][dV][dR][dW][dH]
B28: wrlaihw (PEPTIDE ID NO: 325) (peptide)
peptide: [dW][dR][dL][dA][dI][dH][dW]
B29: hrlkvrwh (PEPTIDE ID NO: 213) (peptide)
peptide: [dH][dR][dL][dK][dV][dR][dW][dH]
B30: wwlklrww (PEPTIDE ID NO: 81) (peptide)
peptide: [dW][dW][dL][dK][dL][dR][dW][dW]
B31: gwrlkvrw (PEPTIDE ID NO: 209) (peptide)
peptide: G[dW][dR][dL][dK][dV][dR][dW]
modifications: also: all residues D-form, Gly1 is achiral
B32: lkleirwh (PEPTIDE ID NO: 429) (peptide)
peptide: [dL][dK][dL][dE][dI][dR][dW][dH]
B33: lrlkvrwl (PEPTIDE ID NO: 210) (peptide)
peptide: [dL][dR][dL][dK][dV][dR][dW][dL]
B34: lkiriey (PEPTIDE ID NO: 324) (peptide)
peptide: [dL][dK][dI][dR][dI][dE][dY]
B35: feirihyh (PEPTIDE ID NO: 442) (peptide)
peptide: [dF][dE][dI][dR][dI][dH][dY][dH]
B36: ewrlkvrw (PEPTIDE ID NO: 229) (peptide)
peptide: [dE][dW][dR][dL][dK][dV][dR][dW]
B37: wrlkvrwf (PEPTIDE ID NO: 218) (peptide)
peptide: [dW][dR][dL][dK][dV][dR][dW][dF]
B38: fkirihyf (PEPTIDE ID NO: 232) (peptide)
peptide: [dF][dK][dI][dR][dI][dH][dY][dF]
B39: lkiuihy (PEPTIDE ID NO: 321) (peptide)
peptide: [dL][dK][dI][dNle][dI][dH][dY]
B40: wrlritw (PEPTIDE ID NO: 314) (peptide)
peptide: [dW][dR][dL][dR][dI][dT][dW]
B41: lkiriheh (PEPTIDE ID NO: 318) (peptide)
peptide: [dL][dK][dI][dR][dI][dH][dE][dH]
B42: lkiwikyh (PEPTIDE ID NO: 212) (peptide)
peptide: [dL][dK][dI][dW][dI][dK][dY][dH]
B43: lkilihyh (PEPTIDE ID NO: 223) (peptide)
peptide: [dL][dK][dI][dL][dI][dH][dY][dH]
B44: lkiriwyh (PEPTIDE ID NO: 206) (peptide)
peptide: [dL][dK][dI][dR][dI][dW][dY][dH]
B45: lrlkvrww (PEPTIDE ID NO: 221) (peptide)
peptide: [dL][dR][dL][dK][dV][dR][dW][dW]
B46: wrlrihw (PEPTIDE ID NO: 101) (peptide)
peptide: [dW][dR][dL][dR][dI][dH][dW]
B47: wqlkvqw (PEPTIDE ID NO: 319) (peptide)
peptide: [dW][dQ][dL][dK][dV][dQ][dW]
B48: leirihy (PEPTIDE ID NO: 316) (peptide)
peptide: [dL][dE][dI][dR][dI][dH][dY]
B49: klklrww (PEPTIDE ID NO: 448) (peptide)
peptide: [dK][dL][dK][dL][dR][dW][dW]
B50: wrrkvrww (PEPTIDE ID NO: 220) (peptide)
peptide: [dW][dR][dR][dK][dV][dR][dW][dW]
B51: lkirilyh (PEPTIDE ID NO: 208) (peptide)
peptide: [dL][dK][dI][dR][dI][dL][dY][dH]
B52: kwrlkvrw (PEPTIDE ID NO: 207) (peptide)
peptide: [dK][dW][dR][dL][dK][dV][dR][dW]
B53: wklwlrww (PEPTIDE ID NO: 12) (peptide)
peptide: [dW][dK][dL][dW][dL][dR][dW][dW]
B54: lkirimy (PEPTIDE ID NO: 219) (peptide)
peptide: [dL][dK][dI][dR][dI][dM][dY]
B55: wrlevrw (PEPTIDE ID NO: 315) (peptide)
peptide: [dW][dR][dL][dE][dV][dR][dW]
B56: fklklrwf (PEPTIDE ID NO: 57) (peptide)
peptide: [dF][dK][dL][dK][dL][dR][dW][dF]

These binders were tested against Tau40 P301L protein (human) (assay: cell-based or functional assay).
With B1 the “IC50, Tau40 assay (ThT)” value was 2380 nM and 2610 nM.
With B2 the “IC50, Tau40 assay (ThT)” value was 510 nM.
For B3, the “IC50, Tau40 assay (ThT)” value was 910 nM.
With B4 the “IC50, Tau40 assay (ThT)” value was 2610 nM.
With B5 the “IC50, Tau40 assay (ThT)” value was 930 nM and 980 nM.
With B6 the “IC50, Tau40 assay (ThT)” value was 2560 nM.
With B7 the “IC50, Tau40 assay (ThT)” value was 2580 nM.
For B8, the “IC50, Tau40 assay (ThT)” value was 830 nM.
B9 was tested, and the “IC50, Tau40 assay (ThT)” value was 2690 nM.
With B10 the “IC50, Tau40 assay (ThT)” value was 810 nM.
In the case of B11, the “IC50, Tau40 assay (ThT)” value is reported as 900 nM.
With B12 the “IC50, Tau40 assay (ThT)” value was 2340 nM.
B13 was tested, and the “IC50, Tau40 assay (ThT)” value was 2690 nM.
B14 was tested, and the “IC50, Tau40 assay (ThT)” value was 880 nM.
For B15, the “IC50, Tau40 assay (ThT)” value was 830 nM.
B16 was tested, and the “IC50, Tau40 assay (ThT)” value was 2470 nM.
In the case of B17, the “IC50, Tau40 assay (ThT)” value is reported as 890 nM.
B18 was tested, and the “IC50, Tau40 assay (ThT)” value was 820 nM.
With B19 the “IC50, Tau40 assay (ThT)” value was 820 nM.
B20 was tested, and the “IC50, Tau40 assay (ThT)” value was 2560 nM and 2570 nM.
With B21 the “IC50, Tau40 assay (ThT)” value was 2450 nM.
For B22, the “IC50, Tau40 assay (ThT)” value was 2490 nM.
With B23 the “IC50, Tau40 assay (ThT)” value was 870 nM.
For B24, the “IC50, Tau40 assay (ThT)” value was 910 nM.
B25 was tested, and the “IC50, Tau40 assay (ThT)” value was 880 nM.
In the case of B26, the “IC50, Tau40 assay (ThT)” value is reported as 2440 nM.
With B27 the “IC50, Tau40 assay (ThT)” value was 860 nM.
B28 was tested, and the “IC50, Tau40 assay (ThT)” value was 2650 nM.
In the case of B29, the “IC50, Tau40 assay (ThT)” value is reported as 820 nM.
B30 was tested, and the “IC50, Tau40 assay (ThT)” value was 2520 nM.
In the case of B31, the “IC50, Tau40 assay (ThT)” value is reported as 790 nM.
B32 was tested, and the “IC50, Tau40 assay (ThT)” value was 2420 nM.
B33 was tested, and the “IC50, Tau40 assay (ThT)” value was 810 nM.
With B34 the “IC50, Tau40 assay (ThT)” value was 2630 nM.
With B35 the “IC50, Tau40 assay (ThT)” value was 2590 nM.
For B36, the “IC50, Tau40 assay (ThT)” value was 900 nM.
B37 was tested, and the “IC50, Tau40 assay (ThT)” value was 840 nM.
For B38, the “IC50, Tau40 assay (ThT)” value was 910 nM.
With B39 the “IC50, Tau40 assay (ThT)” value was 2540 nM.
For B40, the “IC50, Tau40 assay (ThT)” value was 2360 nM.
In the case of B41, the “IC50, Tau40 assay (ThT)” value is reported as 2450 nM.
With B42 the “IC50, Tau40 assay (ThT)” value was 810 nM.
B43 was tested, and the “IC50, Tau40 assay (ThT)” value was 860 nM.
With B44 the “IC50, Tau40 assay (ThT)” value was 780 nM.
With B45 the “IC50, Tau40 assay (ThT)” value was 850 nM.
With B46 the “IC50, Tau40 assay (ThT)” value was 310 nM and 320 nM.
For B47, the “IC50, Tau40 assay (ThT)” value was 2470 nM.
For B48, the “IC50, Tau40 assay (ThT)” value was 2430 nM.
In the case of B49, the “IC50, Tau40 assay (ThT)” value is reported as 920 nM.
With B50 the “IC50, Tau40 assay (ThT)” value was 850 nM.
B51 was tested, and the “IC50, Tau40 assay (ThT)” value was 790 nM.
In the case of B52, the “IC50, Tau40 assay (ThT)” value is reported as 780 nM.
With B53 the “IC50, Tau40 assay (ThT)” value was 2670 nM.
For B54, the “IC50, Tau40 assay (ThT)” value was 840 nM.
With B55 the “IC50, Tau40 assay (ThT)” value was 2400 nM.
With B56 the “IC50, Tau40 assay (ThT)” value was 830 nM.
